# Assay results reported in patent US20030096757.
# Test system: 19-mer (SEQ ID NO:11) cleavage domain peptide
# Active MMP-9 enzyme, sequence (chain, as listed by the source): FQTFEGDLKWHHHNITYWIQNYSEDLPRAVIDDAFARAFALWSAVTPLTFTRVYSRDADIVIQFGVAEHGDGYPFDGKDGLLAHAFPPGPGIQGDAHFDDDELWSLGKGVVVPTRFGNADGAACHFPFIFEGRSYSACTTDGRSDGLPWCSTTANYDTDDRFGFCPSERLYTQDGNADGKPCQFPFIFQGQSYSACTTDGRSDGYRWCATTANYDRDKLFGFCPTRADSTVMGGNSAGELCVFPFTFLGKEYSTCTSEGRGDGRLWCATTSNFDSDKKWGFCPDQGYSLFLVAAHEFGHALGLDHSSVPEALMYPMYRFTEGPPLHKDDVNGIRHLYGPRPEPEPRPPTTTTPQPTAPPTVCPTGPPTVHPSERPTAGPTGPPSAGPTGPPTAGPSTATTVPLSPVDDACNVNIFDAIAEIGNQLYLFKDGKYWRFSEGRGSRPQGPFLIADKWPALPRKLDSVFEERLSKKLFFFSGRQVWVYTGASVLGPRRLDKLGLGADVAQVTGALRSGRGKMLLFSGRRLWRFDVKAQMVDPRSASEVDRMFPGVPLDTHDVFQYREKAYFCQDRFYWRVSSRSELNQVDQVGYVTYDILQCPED
substance,measurement,value
Active MMP-9 enzyme,extended time course of MMP-9 catalyzed hydrolysis of collagen,the 19-mer (SEQ ID NO:11) effectively inhibits the MMP-9 catalyzed hydrolysis of collagen to beyond 1000 minutes
